Data as given in IntAct's records for PubMed 17666011.

Tests used:
anm11_arath PRMT11 = biological target: T1, anm11_arath PRMT11 (UniProt Q9SU94)
T1 sequence: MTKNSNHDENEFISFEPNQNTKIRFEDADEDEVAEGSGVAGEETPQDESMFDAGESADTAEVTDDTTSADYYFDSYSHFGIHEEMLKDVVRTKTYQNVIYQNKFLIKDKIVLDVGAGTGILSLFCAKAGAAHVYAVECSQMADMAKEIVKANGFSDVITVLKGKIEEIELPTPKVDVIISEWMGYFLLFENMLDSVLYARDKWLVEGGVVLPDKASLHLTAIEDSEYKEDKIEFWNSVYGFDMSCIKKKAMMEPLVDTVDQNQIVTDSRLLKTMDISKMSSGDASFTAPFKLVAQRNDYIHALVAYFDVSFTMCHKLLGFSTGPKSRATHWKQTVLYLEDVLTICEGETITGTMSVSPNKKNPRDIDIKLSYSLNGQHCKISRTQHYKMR

anm12_arath PRMT12 = biological target: T2, anm12_arath PRMT12 (UniProt O82210)
T2 sequence: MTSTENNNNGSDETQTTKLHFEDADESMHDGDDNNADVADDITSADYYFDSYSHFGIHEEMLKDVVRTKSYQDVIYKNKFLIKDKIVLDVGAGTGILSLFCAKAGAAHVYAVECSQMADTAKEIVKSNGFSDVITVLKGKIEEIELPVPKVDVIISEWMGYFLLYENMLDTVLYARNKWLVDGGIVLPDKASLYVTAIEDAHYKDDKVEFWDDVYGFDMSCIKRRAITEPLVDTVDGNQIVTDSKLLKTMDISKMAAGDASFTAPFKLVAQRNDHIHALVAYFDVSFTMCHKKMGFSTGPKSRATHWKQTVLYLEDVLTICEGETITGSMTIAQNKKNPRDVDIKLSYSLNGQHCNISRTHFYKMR

effect of a mutation on the interaction (anm11_arath PRMT11): disrupting interaction | effect of a mutation on the interaction (anm12_arath PRMT12): disrupting interaction
Substance: Histone H4 (Homo sapiens) (from UniProt P62805) R20K
